The values below are quoted from earlier work in publication PMC6353226.

For orientation: Kd means the concentration at which binding is half-saturated.

In data set [1] the target is IGF1R pY1165 (Homo sapiens) (UniProt P08069).
Data set [2] concerns the target IGF1R pY1161 (Homo sapiens) (UniProt P08069).

Consider YES1 SH2 (from UniProt P07947), for which the dissociation constant (Kd) in data set [1] and in data set [2] was 0.9 µM each time.
